Here are results for one substance from patent publication US20060003939.

For series [1], the target named is 35S-methionine labeled wild type DIAP1, in vitro translated from diap1-pET14b (UniProt Q24306).
The target of series [2] is His-DIAP1 21-4S mutant (RING domain mutant), in vitro translated from diap1 21-4S pET14b (UniProt Q24306).
His-DIAP1 21-4S mutant (RING domain mutant), in vitro translated from diap1 21-4S pET14b, sequence (Q24306 other isoform, or with tags, fused parts or gaps mutant): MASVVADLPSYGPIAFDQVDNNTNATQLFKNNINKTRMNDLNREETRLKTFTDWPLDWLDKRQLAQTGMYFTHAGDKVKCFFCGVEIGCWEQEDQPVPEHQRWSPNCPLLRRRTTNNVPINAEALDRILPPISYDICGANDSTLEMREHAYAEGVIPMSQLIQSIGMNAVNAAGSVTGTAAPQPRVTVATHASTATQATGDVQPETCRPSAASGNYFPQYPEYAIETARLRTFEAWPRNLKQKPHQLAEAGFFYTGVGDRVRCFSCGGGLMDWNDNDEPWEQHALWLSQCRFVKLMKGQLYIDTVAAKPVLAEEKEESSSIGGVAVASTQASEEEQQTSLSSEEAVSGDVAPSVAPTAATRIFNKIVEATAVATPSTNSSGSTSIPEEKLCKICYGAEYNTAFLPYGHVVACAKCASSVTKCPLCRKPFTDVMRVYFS

35S-methionine labeled wild type DIAP1, in vitro translated from diap1-pET14b, sequence (Q24306 whole entry, the tested form may be a part): as the sequence (Q24306 other isoform, or with tags, fused parts or gaps mutant) above, with Y406C counted along it

Consider His-UBCD1, for which the “in vitro ubiquitination reaction” value in series [1] is on record as “Wild-type DIAP1 (lane 4) showed marked ubiquitination”; in series [2], “whereas the His-DIAP1^21-4S mutant (RING domain mutant) did not (lane 7), in the presence of ubcD1”.
